According to patent US12077795B2, “Method for biocatalytic protein-oligonucleotide conjugation” (The Research Foundation for The State University of New York, priority 2016, dated 2024):

Tested on: heterologous proteins fused to HST-I
Assay: HST-I catalysed protein conjugation (optical assay to monitor HST-I)
Assay type: biochemical, Drosophila melanogaster
Description: Using an optical assay developed to monitor HST-I, heterologous proteins can be covalently modified at their C-terminus by cholesterol with a t1/2 of 10-20 min at pH 7.1, 25 degrees Celsius.

B1: HST-I: ~26 kDa autocatalytic C-terminal segment of the Hedgehog precursor from Drosophila melanogaster, SEQ ID NO.: 001 (protein)
chain: GCFTPESTALLESGVRKPLGELSIGDRVLSMTANGQAVYSEVILFMDRNLEQMQNFVQLHTDGGAVLTVTPAHLVSVWQPESQKLTFVFADRIEEKNQVLVRDVETGELRPQRVVKVGSVRSKGVVAPLTREGTIVVNSVAASCYAVINSQSLAHWGLAPMRLLSTLEAWLPAKEQLHSSPKVVSSAQQQNGIHWYANALYKVKDYVLPQSWRHD
modifications: Drosophila melanogaster
With B1 the “time for protein conjugation” value (in the absence of accessory proteins) was less than 60 min and the “half time of conjugation” value (physiological buffer, room temperature) was no more than 1 h.
